The text below walks through data of patent US20240277804A1, “TRIPLE COMBINATION THERAPY” (Immutep S.A.S., priority 2021, published 2024).

Series [1] can be described thus: Pharmacokinetics of IMP321 after s.c. injection in cancer patients. The class given is in vivo, human. The settings on record: for at least 24 hours after s.c. injection; patients injected with IMP321 doses of more than 6 mg. The procedure: (§1) Doses of 6-30 mg per subcutaneous (s.c.) injection of IMP321 have been shown, thus far, to be safe and provide an acceptable systemic exposure based on the results of pharmacokinetics data obtained in cancer patients.

A short description of series [2]: Safety of s.c. IMP321 in cancer patients. The class given is in vivo, human. Here is the method:
as §1

Bounds are passed on as bounds.

B1: IMP321: recombinant soluble human LAG-3Ig fusion protein, 160-kDa dimer: extracellular domain of hLAG-3 fused to human IgG1 Fc; APC activator (protein)
chain: LQPGAEVPVVWAQEGAPAQLPCSPTIPLQDLSLLRRAGVTWQHQPDSGPPAAAPGHPLAPGPHPAAPSSWGPRPRRYTVLSVGPGGLRSGRLPLQPRVQLDERGRQRGDFSLWLRPARRADAGEYRAAVHLRDRALSCRLRLRLGQASMTASPPGSLRASDWVILNCSFSRPDRPASVHWFRNRGQGRVPVRESPHHHLAESFLFLPQVSPMDSGPWGCILTYRDGFNVSIMYNLTVLGLEPPTPLTVYAGAGSRVGLPCRLPAGVGTRSFLTAKWTPPGGGPDLLVTGDNGDFTLRLEDVSQAQAGTYTCHIHLQEQQLNATVTLAIITVTPKSFGSPGSLGKLLCEVTPVSGQERFVWSSLDTPSQRSFSGPWLEAQEAQLLSQPWQCQLYQGERLLGAAVYFTELSSPG
modifications: left off: small tags and cut ends; a dimerising Fc or GST
Consider B1, for which, in series [1], the “blood concentration of IMP321” value is over 1 ng/mL. Further, in series [2] (doses of 6-30 mg per s.c. injection), the “safety / acceptable systemic exposure” value is listed as “safe”. In addition, the dose limiting toxicity result in series [2] (to date) was “No dose limiting toxicity has been observed”.
